According to US20240327516A1 (Zymeworks, published 2024):
Read-outs that look alike come from different tables or passages of the source.

Columns and labels:
[1] = target: T1, mesothelin (MSLN) on MSLN-expressing tumor cells (human, UniProt Q13421 296-598)
[2] = target: T1, mesothelin (MSLN) on MSLN-expressing …; remark: listed apart in the source
[3] = target: T1, mesothelin (MSLN) on MSLN-expressing …; test: cell-based or functional assay
[4] = target: T2, CD3 on CD3+ Jurkat cells and primary human T cells (human, UniProt P07766 23-207); test: flow cytometry on primary human T cells, apparent affinity
T2 construct: whole, on cells; also called native CD3; CD3ε

[5] = target: T2, CD3 on CD3+ Jurkat cells and primary …; test: whole-cell ELISA on CD3+ Jurkat cells, apparent affinity; Jurkat cells
[6] = target: T1, mesothelin (MSLN) on MSLN-expressing …; test: cell-based or functional assay; remark: listed apart in the source
[7] = target: MSLN (form in the assay not stated) (UniProt Q13421 296-580); test: method and antigen form not stated in Table 12
[8] = target: T2, CD3 on CD3+ Jurkat cells and primary …; test: whole-cell ELISA on CD3+ Jurkat cells, apparent affinity; main value of the cell, outside the parentheses
[9] = target: T2, CD3 on CD3+ Jurkat cells and primary …; test: whole-cell flow cytometry on primary human T cells, apparent affinity
[10] = target: T2, CD3 on CD3+ Jurkat cells and primary …; test: whole-cell ELISA on CD3+ Jurkat cells, apparent affinity
[11] = target: T1, mesothelin (MSLN) on MSLN-expressing …; remark: listed apart in the source
[12] = target: T1, mesothelin (MSLN) on MSLN-expressing …; remark: listed apart in the source
[13] = target: T1, mesothelin (MSLN) on MSLN-expressing …; test: whole-cell flow cytometry on OVCAR-3 cells, apparent affinity
[14] = target: T2, CD3 on CD3+ Jurkat cells and primary …; test: cell ELISA on whole CD3+ Jurkat cells (HRP anti-human IgG Fc, A 450nm)
[15] = target: T1, mesothelin (MSLN) on MSLN-expressing …; test: flow cytometry on MSLN+ OVCAR-3 cells (Alexa Fluor 647 anti-IgG-Fc, MFI)
[16] = target: T2, CD3 on CD3+ Jurkat cells and primary …; test: flow cytometry on primary human CD4+ T cells (anti-IgG-Fc detection, geo MFI)
[17] = target: T2, CD3 on CD3+ Jurkat cells and primary …; test: flow cytometry on primary human CD8+ T cells (anti-IgG-Fc detection, geo MFI)

T1 sequence (Q13421 other isoform, or with tags, fused parts or gaps limits assumed): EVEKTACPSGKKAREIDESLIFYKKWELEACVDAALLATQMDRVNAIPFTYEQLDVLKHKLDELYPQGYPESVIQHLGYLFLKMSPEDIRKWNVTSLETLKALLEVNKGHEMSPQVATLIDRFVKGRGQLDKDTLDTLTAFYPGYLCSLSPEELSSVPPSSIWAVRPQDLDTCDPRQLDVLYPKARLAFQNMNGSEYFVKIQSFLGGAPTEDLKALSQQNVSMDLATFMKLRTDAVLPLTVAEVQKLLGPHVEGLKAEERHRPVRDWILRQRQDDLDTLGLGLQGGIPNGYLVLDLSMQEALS
T2 sequence (P07766 23-207): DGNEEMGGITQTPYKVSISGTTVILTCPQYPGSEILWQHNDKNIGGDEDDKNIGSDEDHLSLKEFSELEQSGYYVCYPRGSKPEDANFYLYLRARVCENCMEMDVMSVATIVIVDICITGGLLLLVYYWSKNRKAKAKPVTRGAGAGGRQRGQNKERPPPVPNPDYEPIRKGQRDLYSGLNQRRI
Sequence of MSLN (form in the assay not stated) (Q13421 other isoform, or with tags, fused parts or gaps limits assumed): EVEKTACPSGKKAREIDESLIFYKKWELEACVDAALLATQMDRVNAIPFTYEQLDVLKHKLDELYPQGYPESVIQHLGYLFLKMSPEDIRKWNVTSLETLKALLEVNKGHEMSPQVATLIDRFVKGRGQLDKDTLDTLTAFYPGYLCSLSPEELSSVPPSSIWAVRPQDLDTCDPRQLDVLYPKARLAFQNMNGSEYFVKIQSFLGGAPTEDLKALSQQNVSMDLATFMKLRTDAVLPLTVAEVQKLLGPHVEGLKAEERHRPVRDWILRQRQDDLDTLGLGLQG

| Binder | EC50 [1] | maximum killing of BxPC3 cells [3] | EC50 [4] | IC50 of T cell-dependent cytotoxicity on OVCAR-3 cells (pan T cells, E:T 5:1, 72 h) [6] | Affinity to MSln [7] | EC50 [10] | other results |
| --- | --- | --- | --- | --- | --- | --- | --- |
| v21791, trivalent and bispecific antibody construct [MSLN (2 Fab) x CD3 (1 Fab)] (bispecific antibody, human IgG1, kappa, lambda, L234A L235A, also called Fab^3 construct; triple-Fab construct) heavy 1: not shown heavy 2: QVQLVQSGAEVKKPGASVKVSCKASGYSFTGYTMNWVRQAPGQGLEWMGLITPYNGASSYNQKFRGKATMTVDTSTSTVYMELSSLRSEDTAVYYCARGGYDGRGFDYWGQGTLVTVSSASTKGPSVFPRAPSSKSTSGGTAALGCLVKDYFPEPVTVSWNSGALTSGVHTFPAVLQSSGLYKLSSVVTVPSSSLGTQTYICNVNHKPSNTKVDKKVEPKSCDKTHTCPPCPAPEAAGGPSVFLFPPKPKDTLMISRTPEVTCVVVSVSHEDPEVKFNWYVDGVEVHNAKTKPREEQYNSTYRVVSVLTVLHQDWLNGKEYKCKVSNKALPAPIEKTISKAKGQPREPQVYVLPPSRDELTKNQVSLLCLVKGFYPSDIAVEWESNGQPENNYLTWPPVLDSDGSFFLYSKLTVDKSRWQQGNVFSCSVMHEALHNHYTQKSLSLSPG light 1: NFMLTQPHSVSESPGKTVTISCKRNTGNIGSNYVNWYQQHEGSSPTTIIYRNDKRPDGVSDRFSGSIDRSSKSASLTISNLKTEDEADYFCQSYSSGFIFGGGTKLTVLGQPKAAPSVTLFPPSSEQLQANKARLVCLISDFYPGAVTVAWKADSSPVKAGVETTTPSKQSNNKYAASSYLSLTPEQWKSHKSYSCQVTHEGSTVEKTVAPAECS light 2: DIQMTQSPSSLSASVGDRVTITCSASSSVSYMHWYQQKSGKAPKLLIYDTSKLASGVPSRFSGSGSGTDFTLTISSLQPEDFATYYCQQWSGYPLTFGQGTKLEIKRTVAAPSVFIFPPSDEQLKSGTASVGCWLNNFYPREAKVQWKVDNALQSGNSQESVTEQDSKDSTYSLDSTLELSKADYEKHKVYACEVTHQGLSSPVTKSFNRGEC | 1.9 nM | 60% | 7.4 nM | – | – | – | EC50 (read off the curve) [2]: ~0.7 nM; EC50 [5]: 402 nM |
| v29048, trivalent and bispecific antibody construct [MSLN (2 scFv) x CD3 (1 Fab)] (bispecific antibody, human IgG1, lambda, L234A L235A) heavy 1: not shown heavy 2: EVQLLESGGGLVQPGGSVRISCAASGYSFTGYTMNWVRQAPGKGLEWIGLITPYSGASSYADSFKGRATLSVDNSKNTAYMQLNSLRAEDTAVYYCARGGYDGRGFDYWGQGTLVTVSSGGGGSGGGGSGGGGSDIQLTQSPSSLSASVGDRVTMTCSASSSVSYMHWYQQKPGKAPKLWIYDTSKLASGVPSRFSGSGSGTDYTLTISSVQPEDFATYYCQQWSKHPLTFGQGTKVEIKAAEPKSSDKTHTCPPCPAPEAAGGPSVFLFPPKPKDTLMISRTPEVTCVVVSVSHEDPEVKFNWYVDGVEVHNAKTKPREEQYNSTYRVVSVLTVLHQDWLNGKEYKCKVSNKALPAPIEKTISKAKGQPREPQVYVLPPSRDELTKNQVSLLCLVKGFYPSDIAVEWESNGQPENNYLTWPPVLDSDGSFFLYSKLTVDKSRWQQGNVFSCSVMHEALHNHYTQKSLSLSPG light: NFMLTQPHSVSESPGKTVTISCKRNTGNIGSNYVNWYQQHEGSSPTTIIYRNDKRPDGVSDRFSGSIDRSSKSASLTISNLKTEDEADYFCQSYSSGFIFGGGTKLTVLGQPKAAPSVTLFPPSSEELQANKATLVCLISDFYPGAVTVAWKADSSPVKAGVETTTPSKQSNNKYAASSYLSLTPEQWKSHRSYSCQVTHEGSTVEKTVAPTECS | 0.5 nM | – | 183 nM | 0.0004 nM | 9.8 nM | – | EC50 [8]: 5.5 nM |
| v31926, negative control antibody [Hemagglutinin (HA) (2 scFv) x CD3 (1 Fab)] (bispecific antibody) heavy 1: not shown heavy 2: QVQLVQSGAEVKKPGASVRVSCRASGYIFTESGITWVRQAPGQGLEWMGWISGYSGDTKYAQKLQGRVTMTKDTSTTTAYMELRSLRYDDTAVYYCARDVQYSGSYLGAYYFDYWSPGTLVTVSSGGGGSGGGGSGGGGSGGGQSVLTQPPSASGTPGQRVTISCSGSSSNIGTNYVYWYQQFPGTAPKLLIYRSYQRPSGVPDRFSGSKSGSSASLAISGLQSEDEADYYCATWDDSLDGWVFGGGTKLTVLAAEPKSSDKTHTCPPCPAPEAAGGPSVFLFPPKPKDTLMISRTPEVTCVVVSVSHEDPEVKFNWYVDGVEVHNAKTKPREEQYNSTYRVVSVLTVLHQDWLNGKEYKCKVSNKALPAPIEKTISKAKGQPREPQVYVLPPSRDELTKNQVSLLCLVKGFYPSDIAVEWESNGQPENNYLTWPPVLDSDGSFFLYSKLTVDKSRWQQGNVFSCSVMHEALHNHYTQKSLSLSPG light: NFMLTQPHSVSESPGKTVTISCKRNTGNIGSNYVNWYQQHEGSSPTTIIYRNDKRPDGVSDRFSGSIDRSSKSASLTISNLKTEDEADYFCQSYSSGFIFGGGTKLTVLGQPKAAPSVTLFPPSSEELQANKATLVCLISDFYPGAVTVAWKADSSPVKAGVETTTPSKQSNNKYAASSYLSLTPEQWKSHRSYSCQVTHEGSTVEKTVAPTECS | – | – | – | – | – | – | EC50 [9]: 102 nM |
| v29045, trivalent and bispecific antibody construct [MSLN (2 scFv) x CD3 (1 Fab)] (bispecific antibody, human IgG1, lambda, L234A L235A) heavy 1: not shown heavy 2: QVQLVQSGAEVKKPGASVKISCKASGYSFTGYTMNWVRQAPGQGLEWIGLITPYSGASSYAQKFQGRATLTVDKSTSTAYMELSSLRSEDTAVYYCARGGYDGRGFDYWGQGTLVTVSSGGGGSGGGGSGGGGSEIVLTQSPATLSLSPGERVTMSCSASSSVSYMHWYQQKPGQAPRLWIYDTSKLASGVPARFSGSGSGTDYTLTISSVEPEDFAVYYCQQWSGYPLTFGQGTKVEIKAAEPKSSDKTHTCPPCPAPEAAGGPSVFLFPPKPKDTLMISRTPEVTCVVVSVSHEDPEVKFNWYVDGVEVHNAKTKPREEQYNSTYRVVSVLTVLHQDWLNGKEYKCKVSNKALPAPIEKTISKAKGQPREPQVYVLPPSRDELTKNQVSLLCLVKGFYPSDIAVEWESNGQPENNYLTWPPVLDSDGSFFLYSKLTVDKSRWQQGNVFSCSVMHEALHNHYTQKSLSLSPG light: NFMLTQPHSVSESPGKTVTISCKRNTGNIGSNYVNWYQQHEGSSPTTIIYRNDKRPDGVSDRFSGSIDRSSKSASLTISNLKTEDEADYFCQSYSSGFIFGGGTKLTVLGQPKAAPSVTLFPPSSEELQANKATLVCLISDFYPGAVTVAWKADSSPVKAGVETTTPSKQSNNKYAASSYLSLTPEQWKSHRSYSCQVTHEGSTVEKTVAPTECS | 0.4 nM | – | – | 0.0272 nM | 62.6 nM | 1.3 nM | – |
| v18490, anti-MSLN antibody (mAb, MSLN (SS) Fab x 2) (antibody, human IgG1, kappa, L234A L235A) heavy 1: QVQLVQSGAEVKKPGASVKVSCKASGYSFTGYTMNWVRQAPGQGLEWMGLITPYNGASSYNQKFRGKATMTVDTSTSTVYMELSSLRSEDTAVYYCARGGYDGRGFDYWGQGTLVTVSSASTKGPSVFPLAPSSKSTSGGTAALGCLVKDYFPEPVTVSWNSGALTSGVHTFPAVLQSSGLYSLSSVVTVPSSSLGTQTYICNVNHKPSNTKVDKKVEPKSCDKTHTCPPCPAPEAAGGPSVFLFPPKPKDTLMISRTPEVTCVVVSVSHEDPEVKFNWYVDGVEVHNAKTKPREEQYNSTYRVVSVLTVLHQDWLNGKEYKCKVSNKALPAPIEKTISKAKGQPREPQVYVLPPSRDELTKNQVSLLCLVKGFYPSDIAVEWESNGQPENNYLTWPPVLDSDGSFFLYSKLTVDKSRWQQGNVFSCSVMHEALHNHYTQKSLSLSPG heavy 2: not shown light: DIQMTQSPSSLSASVGDRVTITCSASSSVSYMHWYQQKSGKAPKLLIYDTSKLASGVPSRFSGSGSGTDFTLTISSLQPEDFATYYCQQWSGYPLTFGQGTKLEIKRTVAAPSVFIFPPSDEQLKSGTASVVCLLNNFYPREAKVQWKVDNALQSGNSQESVTEQDSKDSTYSLSSTLTLSKADYEKHKVYACEVTHQGLSSPVTKSFNRGEC | 1.6 nM | – | – | – | – | – | – |
| v21815, bivalent and bispecific antibody construct [MSLN (1 Fab) x CD3 (1 scFv)] (bispecific antibody, human IgG1, kappa, L234A L235A, also called 1x1 construct; 1+1 anti-CD3 scFv x anti-MSLN Fab construct) heavy 1: not shown heavy 2: QVQLVQSGAEVKKPGASVKVSCKASGYSFTGYTMNWVRQAPGQGLEWMGLITPYNGASSYNQKFRGKATMTVDTSTSTVYMELSSLRSEDTAVYYCARGGYDGRGFDYWGQGTLVTVSSASTKGPSVFPLAPSSKSTSGGTAALGCLVKDYFPEPVTVSWNSGALTSGVHTFPAVLQSSGLYSLSSVVTVPSSSLGTQTYICNVNHKPSNTKVDKKVEPKSCDKTHTCPPCPAPEAAGGPSVFLFPPKPKDTLMISRTPEVTCVVVSVSHEDPEVKFNWYVDGVEVHNAKTKPREEQYNSTYRVVSVLTVLHQDWLNGKEYKCKVSNKALPAPIEKTISKAKGQPREPQVYVLPPSRDELTKNQVSLLCLVKGFYPSDIAVEWESNGQPENNYLTWPPVLDSDGSFFLYSKLTVDKSRWQQGNVFSCSVMHEALHNHYTQKSLSLSPG light: DIQMTQSPSSLSASVGDRVTITCSASSSVSYMHWYQQKSGKAPKLLIYDTSKLASGVPSRFSGSGSGTDFTLTISSLQPEDFATYYCQQWSGYPLTFGQGTKLEIKRTVAAPSVFIFPPSDEQLKSGTASVVCLLNNFYPREAKVQWKVDNALQSGNSQESVTEQDSKDSTYSLSSTLTLSKADYEKHKVYACEVTHQGLSSPVTKSFNRGEC | 1.7 nM | 35% | 0.2 nM | – | – | 2.4 nM | Kd [11]: ~1.73 nM; EC50 (read off the curve) [12]: ~2 nM; EC50 [13]: 6.7 nM; EC50 (read off the curve) [14]: ~2 nM; EC50 (read off the curve) [15]: ~7 nM; EC50 (read off the curve) [16]: ~2 nM; EC50 (read off the curve) [17]: ~2 nM |
